What was measured:
[1] = molecular target: RLuc8β2AR (β2-adrenergic receptor fused to RLuc8, BRET donor construct); assay: BRET recruitment assay, RLuc8β2AR and GFP-arrestin-3 in co-transfected cells; the concentration varied is that of isoproterenol
[2] = molecular target: RLuc8β2AR (β2-adrenergic receptor fused to RLuc8, BRET donor construct); assay: BRET recruitment assay in co-transfected cells; the concentration is that of isoproterenol
[3] = molecular target: RLuc8β2AR (β2-adrenergic receptor fused to RLuc8, BRET donor construct); assay: BRET recruitment assay, RLuc8β2AR and GFP-arrestin-3 mutant in co-transfected cells, isoproterenol-induced
[4] = molecular target: RLuc8β2AR (β2-adrenergic receptor fused to RLuc8, BRET donor construct); assay: BRET recruitment assay, RLuc8β2AR and GFP-arrestin-3 mutant in co-transfected cells; the concentration varied is that of isoproterenol
[5] = molecular target: RLuc8β2AR (β2-adrenergic receptor fused to RLuc8, BRET donor construct); assay: BRET recruitment assay in co-transfected cells, isoproterenol-induced

In the case of “GFP-arrestin-3 WT (human wild-type arrestin-3, SEQ ID NO: 1)”, the Potency (pEC50 of isoproterenol for recruitment of the arrestin to β2AR) [1] is reported as 6.8 pEC50 and the potency as concentration of isoproterenol for half of the total recruitment of the arrestin to β2AR [2] is reported as 158 nM.

With “GFP-arrestin-3 double mutant A (SEQ ID NO: 2): T299A + I386A” the Efficacy (Emax) in %, normalized to WT [3] was 132%, the Potency (pEC50 of isoproterenol for recruitment of the arrestin to β2AR) [4] was 7.1 pEC50 and the increase of efficacy in arrestin recruitment compared to wild-type arrestin-3 [5] was 30%.

B1: GFP-arrestin-3 triple mutant D (SEQ ID NO: 5): T299A + I386A + R393A (protein)
chain: MGEKPGTRVFKKSSPNCKLTVYLGKRDFVDHLDKVDPVDGVVLVDPDYLKDRKVFVTLTCAFRYGREDLDVLGLSFRKDLFIATYQAFPPVPNPPRPPTRLQDRLLRKLGQHAHPFFFTIPQNLPCSVTLQPGPEDTGKACGVDFEIRAFCAKSLEEKSHKRNSVRLVIRKVQFAPEKPGPQPSAETTRHFLMSDRSLHLEASLDKELYYHGEPLNVNVHVTNNSTKTVKKIKVSVRQYADICLFSTAQYKCPVAQLEQDDQVSPSSTFCKVYTITPLLSDNREKRGLALDGKLKHEDANLASSTIVKEGANKEVLGILVSYRVKVKLVVSRGGDVSVELPFVLMHPKPHDHIPLPRPQSAAPETDVPVDTNLIEFDTNYATDDDAVFEDFAALRLKGMKDDDYDDQLC
B1 showed an Efficacy (Emax) in %, normalized to WT [3] of 89.2% and a Potency (pEC50 of isoproterenol for recruitment of the arrestin to β2AR) [4] of 7.2 pEC50.

B2: GFP-arrestin-3 triple mutant C (SEQ ID NO: 4): T299A + I386A + D298A (protein)
chain: MGEKPGTRVFKKSSPNCKLTVYLGKRDFVDHLDKVDPVDGVVLVDPDYLKDRKVFVTLTCAFRYGREDLDVLGLSFRKDLFIATYQAFPPVPNPPRPPTRLQDRLLRKLGQHAHPFFFTIPQNLPCSVTLQPGPEDTGKACGVDFEIRAFCAKSLEEKSHKRNSVRLVIRKVQFAPEKPGPQPSAETTRHFLMSDRSLHLEASLDKELYYHGEPLNVNVHVTNNSTKTVKKIKVSVRQYADICLFSTAQYKCPVAQLEQDDQVSPSSTFCKVYTITPLLSDNREKRGLALDGKLKHEAANLASSTIVKEGANKEVLGILVSYRVKVKLVVSRGGDVSVELPFVLMHPKPHDHIPLPRPQSAAPETDVPVDTNLIEFDTNYATDDDAVFEDFARLRLKGMKDDDYDDQLC
With B2 the Efficacy (Emax) in %, normalized to WT [3] was 109% and the Potency (pEC50 of isoproterenol for recruitment of the arrestin to β2AR) [4] was 7.2 pEC50.

B3: GFP-arrestin-3 triple mutant B (SEQ ID NO: 3): T299A + I386A + R166A (protein)
chain: MGEKPGTRVFKKSSPNCKLTVYLGKRDFVDHLDKVDPVDGVVLVDPDYLKDRKVFVTLTCAFRYGREDLDVLGLSFRKDLFIATYQAFPPVPNPPRPPTRLQDRLLRKLGQHAHPFFFTIPQNLPCSVTLQPGPEDTGKACGVDFEIRAFCAKSLEEKSHKRNSVALVIRKVQFAPEKPGPQPSAETTRHFLMSDRSLHLEASLDKELYYHGEPLNVNVHVTNNSTKTVKKIKVSVRQYADICLFSTAQYKCPVAQLEQDDQVSPSSTFCKVYTITPLLSDNREKRGLALDGKLKHEDANLASSTIVKEGANKEVLGILVSYRVKVKLVVSRGGDVSVELPFVLMHPKPHDHIPLPRPQSAAPETDVPVDTNLIEFDTNYATDDDAVFEDFARLRLKGMKDDDYDDQLC
For B3, the Efficacy (Emax) in %, normalized to WT [3] was 103%, the Potency (pEC50 of isoproterenol for recruitment of the arrestin to β2AR) [4] was 7.3 pEC50 and the potency as concentration of isoproterenol for half of the total recruitment of the arrestin to β2AR [2] was 50.1 nM.

Reference: patent US20220106382A1
